Data published in patent US20160229907A1 (published 2016).
Values belong to the binder of their own block, whether it stands above or below them.

Biological target: T1, Human PCSK9 form a' (human, UniProt Q8NBP7 31-692)
T1 construct: also called PCSK9 a'
Experiment: SPR (ProteOn XPR36), antibody captured on anti-human IgG, PCSK9 as analyte, 25 C, 1:1 model

Kd: 0.181 nM | koff: 0.000272 s⁻¹ | kon: 1.5e+06 M⁻¹ s⁻¹
B1: Antibody 316P (antibody, V domains shown)
VH: EVQLVESGGGLVQPGGSLRLSCAASGFTFNNYAMNWVRQAPGKGLDWVSTISGSGGTTNYADSVKGRFIISRDSSKHTLYLQMNSLRAEDTAVYYCAKDSNWGNFDLWGRGTLVTVSS
VL: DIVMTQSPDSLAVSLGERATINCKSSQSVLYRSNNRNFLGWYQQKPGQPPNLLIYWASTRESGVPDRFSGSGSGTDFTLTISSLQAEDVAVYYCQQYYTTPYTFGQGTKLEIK

Kd: 0.185 nM | koff: 2.29e-05 s⁻¹ | kon: 124000 M⁻¹ s⁻¹
B2: Evolocumab (antibody, V domains shown)
VH: QVQLVQSGAEVKKPGASVKVSCKASGYTLTSYGISWVRQAPGQGLEWMGWVSFYNGNTNYAQKLQGRGTMTTDPSTSTAYMELRSLRSDDTAVYYCARGYGMDVWGQGTTVTVSS
VL: QSALTQPASVSGSPGQSITISCTGTSSDVGGYNSVSWYQQHPGKAPKLMIYEVSNRPSGVSNRFSGSKSGNTASLTISGLQAEDEADYYCNSYTSTSMVFGGGTKLTVL
